Assay: soluble on expression in E. coli; label from the status in PepcDB or PDB records

| Sequence | soluble on expression in E. coli |
| --- | --- |
| MSLAEKPKKPQKLRARLPRGLADRGPAEIAATRAMVEKIREVYERYGFEPVETPAFEYTDALGKFLPDQDRPNEGVFSLQDDDEQWISLRYDLTAPLARYVAENFDQLPKPHRSYRFGWVFRNEKPGPGRFRQFMQFDADTVGAPTAAADAEMCMMAADTMEALGIPRGSYVVKVNNRKVLDGVLESIGLGGDENAGRRLTVLRAIDKSDKFAPEEIKKLLGPGRWDGGEEGKGDFTKGAMLSDDQSELILRATSPSFIAGRFNADGSGGISNIDTVELLRSTADNETLKQGCDELAVIADLLDACGYGATSANPDVRVVIDPSVVRGLEYYTGPVYEVELLLDTKDEKGRPVRFGSVGGGGRYDGLVSRFRGEPVPATGFSIGVSRLQAALTLIGQLGNKPQAGPVVVTVFGGEIAGYQKMVATLRKAGIRAELYLGNPKHSLGQQMKYADKRNSPCAIIQGSDEKQQGIVQIKDLILGAELASLEKDRDEYLKKQAEAQFSCNEDEMVAKVQELLQRRGWRGGKGIITITTDPNSSSVDKLAAALEHHHHHH | soluble |
| MVFDRQMKRGQRDWAVRQPDFKAAQYLKEEIGWRVADKVFDLTKFNPLVLDIGCGVGHIAPHLIKENVGKIIQVDMSGGMAQSSAKCEDPEVIVERRTVDEETLDGFHENQFDLLLTSMSAHWINHLPQWMRKCHDIVKPDCPFIGSMLAEDTLYELRCSLQLAELERIGGVSSHISPFVKTQDIGGLLSSAGFDMITLDSDEIQVGYPNMFALMYDLQLMGESHCTHRRNPTIRRDVLVAAEAIYQSMYSSDGKYPATFKIVSFIGWKPGPNMPKAAKRGSQTVSLKDIGKIVEDPEMMRKMSEKDGVDKKK | not soluble |
| MATLEQKLTVLISDTIESMGYELVGVECQHAGRFLTVRLYIDKEGGVTIDDCSDVSRQVSAIFDVEDPISDKYNLEVSSPGLDRPLFTLAHYARFVGREMVIHLRIPMFDRRKWQGKLTKVDGDLISLEIENNGEHQFIFSNIQKANLIPVFDF | not soluble |
| SLKPFQDKNTFFYKSPSYICDSEISVACKKGKKVDFPNQDDFTIIQTNDWILIMVFDGHGPSGHDISNFVHVVLPLLFSYNIEKIYENPVRTMKTLFYMINCYLVNYSYCINNNINPININFIDYNLSGTTCTIILYNFITKKIYSAHTGDSRAVMGKQNPQTNKFSAYNITEDHKPSLKLEKDRILAFGGEVKKLHGDVAYRVFVKDEMYPGLAMSRAIGDITSSFIGVTCEPTIKILDKLEEDKFIIVATDGIWEFISSEECVQMVSKKKKKKVHIAMEEIIKESWRRWARIDTVDDMTLVILYF | not soluble |
| MGSDKIHHHHHHVETSASVMEPFLQLLRGNNLRWRSFGLTRQDGNVSETEAIPNPQDTVDTHPWGRYVAMGDSFTEGIGDPEPGSPGGHRGWADRVAEELSRGHSDFAYANLAVRGRLLEQIVDQQLAPCLALKPDLVTLSAGGNDLIRPGGDPDALAEKLDSVVHILSLGGATVVLFNGPDTGSSVLGRVRSKIAIYNENLRTVAARHDAVIADMWSLRQLSDPQMWDQDRLHFSPLGHHTIAAMVLDSLNIRHTLEPLSPKPLPQRSWREARSGDLVWAREYFVPWVVRRLRHQSSGDGVTAKRPTPGPVFGPGMPLGSGEAPGIEAEQR | not soluble |
| MGSDKIHHHHHHMSLPLRSIHYFVEVARCESFSLAAERLHVSQSAVSHQVALLEGYLGDDLFVRRGRKILLTAVGENYFNEVAGAINAIEGATANVRQYDTRQVKLAVHGSLAVKWLIPALDEFRQRYPNVELTLQMLTQDGNFDTQWADCFITTQPPGMGYQRYHLYDETLKPYCSKALWAEAHRLESAGDLIQYPLLSAISAFASGEPGTDWQRWFKKANLRLPVSARVHHFSHLLLAAEAAKYGQGIALLNEFMTTEQEREESLFELPFHSIQTDDSFYFVYPSSTAKSPGLESLGDWLVALCRTRH | not soluble |
| MIKTFKSKALAELYETGSSSKTDKKLFKRIIVRLDRLNVAEKPEEMNLPGFNFHALIGFHPIRYTVHINGPWCITFEFDSCNAYRVDLEQYH | not soluble |
| VTAVPTDSAEKPAVADAGVRSVTRVIDLLELFDAAHPTRSLKELVEGTKLPKTTVVRLVATMCARSVLTSRADGSYSLGPEMLRWVRLAGRTWAPPEEVVDIMRQLSADTGETVNLYIRQGLSRVVVAQCESTATVRSVIPLGVPYPLWAGAAGKILLLAAPELIDDVAADSPHGPEFADQLREKVEDGRERGYQLVHGERELGSSGLSFPLVDSHGTVVAALTLGGPTGRFTEDRTPHYIECTRAAAEEISAIGLPGLD | soluble |
| MKSTFSVLFFVKKDKQKINGSYPIFVRITIDGVASRFNSKLDVQPKLWDGKAGKAAGRSAEATRINRLLDDINASLNTIYHELQRRDNYVTAEKVKNEFLGHSENHDTILNLFQKHNDDVKQLVGISKTIATYRKYEVTRRHLAEFIQSKYNLSDISIKEITPMFITDFELYLRTTCKCGYNTTAKFMQFFKRIILIARNNGILIGDPFANYKIRLEKVDRGYLTEDEIKIILKKKMVSERLEQVRDVFIFSCFSGLAYVDVANLKEDNIRKSFDGNLWIITKRQKTNTDVNVPLLDIPKMILEKYKGKLPNGKVLPIISNQK | not soluble |
| AMDFPQQLEACVKQANQALSRFIAPLPFQNTPVVETMQYGALLGGKRLRPFLVYATGHMFGVSTNTLDAPAAAVECIHAYSLIHDDLPAMDDDDLRRGLPTCHVKFGEANAILAGDALQTLAFSILSDADMPEVSDRDRISMISELASASGIAGMCGGQALDLDAEGKHVPLDALERIHRHKTGALIRAAVRLGALSAGDKGRRALPVLDKYAESIGLAFQVQDDILDVVGDTATLGKRQGADQQLGKSTYPALLGLEQARKKARDLIDDARQSLKQLAEQSLDTSALEALADYIIQRNK | soluble |
| MSTIIMDLCSYTRLGLTGYLLSRGVKKREINDIETVDDLAIACDSQRPSVVFINEDCFIHDASNSQRIKLIINQHPNTLFIVFMAIANVHFDEYLLVRKNLLISSKSIKPESLDDILGDILKKETTITSFLNMPTLSLSRTESSMLRMWMAGQGTIQISDQMNIKAKTVSSHKGNIKRKIKTHNKQVIYHVVRLTDNVTNGIFVNMR | not soluble |
| ETGGERQLSPEKSEIWGPGLKADVVLPARYFYIQAVDTSGNKFTSSPGEKVFQVKVSAPEEQFTRVGVQVLDRKDGSFIVRYRMYASYKNLKVEIKFQGQHVAKSPYILKG | soluble |
| MSLAQAMKIAIVDDEQDMRQSISQWLALSGYDTETFASAEEALKVLGSEYPGIVISDIKMPGMDGMQFLKKLMGADSSLPVIMITGHGDVPMAVEAMRVGAFDFLEKPFNPDRMSDLAKRASNARRLTLDNRALRRELSDGGQIMKKLIGTSPVMERLREDILDLGQADGHVLIDGETGTGKTLVAHALHAVGSRAGKKFVLVSCSALEEEALAKRLFGPMIPEDAQLPAIEEARGGTLVLEDVESLSDALQAKLLSVMNQQGTPAETRIVAISNLQEAGKTSEDVLRPDLFYRLAALRLTMPPLRQRGEDILTLFTRLSEQFAEEYGCDAPQVSAQEAAQLLQAPWPGNVRQLINIAERAVLQARRGSGTIASLLMSDHEDEGHHHHHH | soluble |
| TRIPGVRLMRAEQAYPRSPVFYEPRICILAQGQKIGFLGGETYRYDAERYLVMSVPLPFECETHASAAEPLLGVSVDVDIGTLKELLLQMEEAPGSDDDNELAPSAPMASVPLDAGMADAVMRLLGCLQSPLDSHILGPQLVREIIFRALRSEQGNAL | not soluble |
| MVLGLASFPESLSSQSETATQPRRPSVKWDLGSDYRKGTEETTASGSNFRRERLDSQPDLGLHVQPQIYFLRPRSPLPKLLFSLMNTNDANVKKLLPKSHLSRVIIRDNLNAQRICEMEMKASDKTKRKMSYLYDHLKKKFMMDQLRKMIRWRRDSQSTQDYLDKERV | not soluble |
| AARSECKRSHKFVPGAWLAGEGVDVTSLRRSGSFPVDTQRFLRPDGTCTLCENALQEGTLQRLPLALTNWRAQGSGCQRHVTRAKVSSTEAVARDAARSIRNDWKVGLDVTPKPTSNVHVSVAGSHSQAANFAAQKTHQDQYSFSTDTVECRFYSFHVVHTPPLHPDFKRALGDLPHHFNASTQPAYLRLISNYGTHFIRAVELGGRISALTALRTCELALEGLTDNEVEDCLTVEAQVNIGIHGSISAEAKACEEKKKKHKMTASFHQTYRERHSEVVGGHHTSINDLLFGIQAGPEQYSAWVNSLPGSPGLVDYTLEPLHVLLDSQDPRREALRRALSQYLTDRARWRDCSRPCPPGRQKSPRDPCQCVCHGSAVTTQDCCPRQRGLAQLEVTFIQAWGLWGDWFTATDAYVKLFFGGQELRTSTVWDNNNPIWSVRLDFGDVLLATGGPLRLQVWDQDSGRDDDLLGTCDQAPKSGSHEVRCNLNHGHLKFRYHARCLPHLGGGTCLDYVPQMLLGEPPGNRSGAVW | soluble |
| DEIIDGEDELEQDDPFEGEDIDPESIQEPEASYDSSSSPSGASNAEDDWQDEHRVRKFHINGVTVKAIAERVQYYDADGKLVTESFKDYTRKTMAKQFTSMDDFVKRWQDADKKQAIIDELAEEGIIWEALELEVGKDLDPFDMICHVVYDQPALTRKERADNVKKRNYFTKYGETAQQVLNNLLDKYADEGVQEIENIHVLKVKPFDEMGRPAEIVKKCFGGKEQYLEAISELEAEIY | not soluble |
| MGHQNAAVSENQNHDDGAASSPGFKLVGFSKFVRKNPKSDKFKVKRFHHIEFWCGDATNVARRFSWGLGMRFSAKSDLSTGNMVHASYLLTSGDLRFLFTAPYSPSLSAGEIKPTTTASIPSFDHGSCRSFFSSHGLGVRAVAIEVEDAESAFSISVANGAIPSSPPIVLNEAVTIAEVKLYGDVVLRYVSYKAEDTEKSEFLPGFERVEDASSFPLDYGIRRLDHAVGNVPELGPALTYVAGFTGFHQFAEFTADDVGTAESGLNSAVLASNDEMVLLPINEPVHGTKRKSQIQTYLEHNEGAGLQHLALMSEDIFRTLREMRKRSSIGGFDFMPSPPPTYYQNLKKRVGDVLSDDQIKECEELGILVDRDDQGTLLQIFTKPLGDRPTIFIEIIQRVGCMMKDEEGKAYQSGGCGGFGKGNFSELFKSIEEYEKTLEAKQLVG | soluble |
| MSLRPTMADVAREAGVSLSTVDRVLNLRADVRTDTAQRIAAAAALLGFHAKGVIEQRILNDKPTVRLGFLLQKSGVAFYKGLAQALSNAAATFTRARVQVVIGYLDDLDPATVAQRLLALGDQVDGVGMVAVDHPRVRDAVASLQVAGVPVVALISELAGLGSASYVGVDNRLMGRTAGWFVTRLAGSPGSAAVMVSSQRFQCQELCEMSFRSYLSSHSTDWELLASRLTLEDDDFAYGNALDLLSGEPELSALYVAGGGVAGVLRALRELQQQQIRLPVVVCHDLTPLTREALKADLVQVVLSHPIVQVAEQTVRALVAASSDLTRVARVTVPIQVDVSESIAEGHHHHHH | soluble |
| AIAADGQMPFSCHYPSRLRRDPFRDSPLSSRLLDDGFGMDPFPDDLTASWPDWALPRLSSAWPGTLRSGMVPRGPTATARFGVPAEGRTPPPFPGEPWKVCVNVHSFKPEELMVKTKDGYVEVSGKHEEKQQEGGIVSKNFTKKIQLPAEVDPVTVFASLSPEGLLIIEAPQVPPYSTFGESSFNNELPQDSQEVTCT | soluble |
| MPESIPQFYKRIQSCDLQSDTTYSKEKPYFNIFSRQCNFGTVQFSYREFYKVTLIIGVGKLYYADKWILVNRPALLFSNPLVPYAWESISEEQKGVFCIFNERFVQSEEKNGSLANTPLFKVTGDKVFFLDDTQVAKVLDIYTQMQEENQSDYVNKFDVLRCYLHLLIHTALKMQDSNRYESHLNASQRITELFIELLDRQFPIDYPHAVLNLRTPADYANRLSVHVNHLNKVIKDTTGKTTSEMIAERIIKECTQYLLHSNLSISEIAYSLGFETVSYFSKFYRKHTGKSPSEVRERTII | not soluble |

Reference: the DeepSol protein solubility set
